To fix the notation:
T1: HT-Lot5ΔC, Lot5 (residues 1–227) with N-terminal HT-tag (S. cerevisiae, UniProt P34234 1-227)
T1 sequence (looked up): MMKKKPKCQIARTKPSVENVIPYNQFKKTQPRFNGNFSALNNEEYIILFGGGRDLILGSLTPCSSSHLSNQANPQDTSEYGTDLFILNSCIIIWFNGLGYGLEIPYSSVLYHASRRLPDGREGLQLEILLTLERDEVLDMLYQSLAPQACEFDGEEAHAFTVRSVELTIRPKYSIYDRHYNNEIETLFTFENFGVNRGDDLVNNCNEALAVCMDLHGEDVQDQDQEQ

T2: full-length Lot5 with N-terminal HT-tag (S. cerevisiae, UniProt P34234 1-306)
T2 sequence (looked up): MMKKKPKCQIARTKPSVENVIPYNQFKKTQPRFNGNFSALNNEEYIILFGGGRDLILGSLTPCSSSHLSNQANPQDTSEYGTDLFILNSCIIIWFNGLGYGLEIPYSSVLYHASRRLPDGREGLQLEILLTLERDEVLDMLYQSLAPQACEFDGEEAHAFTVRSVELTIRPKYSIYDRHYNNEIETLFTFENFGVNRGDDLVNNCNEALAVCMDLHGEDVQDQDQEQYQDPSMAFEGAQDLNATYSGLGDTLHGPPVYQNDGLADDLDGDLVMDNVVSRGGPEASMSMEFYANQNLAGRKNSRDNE

T3: D1/D2/F/E/G pentamer (5Sm) (S. cerevisiae, UniProt Q02260 1-109; Q06217 1-110; P54999 1-86; Q12330 1-94; P40204 1-77)
T3 sequence (looked up) 1: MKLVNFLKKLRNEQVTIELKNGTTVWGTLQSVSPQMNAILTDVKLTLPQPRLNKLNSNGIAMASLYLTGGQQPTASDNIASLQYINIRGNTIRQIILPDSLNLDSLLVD
T3 sequence (looked up) 2: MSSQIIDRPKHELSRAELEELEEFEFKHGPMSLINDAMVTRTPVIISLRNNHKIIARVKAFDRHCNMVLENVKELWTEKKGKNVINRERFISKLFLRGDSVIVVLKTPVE
T3 sequence (looked up) 3: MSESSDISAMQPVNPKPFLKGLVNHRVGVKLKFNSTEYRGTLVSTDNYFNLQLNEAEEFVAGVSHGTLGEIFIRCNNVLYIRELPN
T3 sequence (looked up) 4: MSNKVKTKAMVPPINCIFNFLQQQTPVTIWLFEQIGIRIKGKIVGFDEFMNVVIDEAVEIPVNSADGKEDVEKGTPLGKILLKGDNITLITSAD
T3 sequence (looked up) 5: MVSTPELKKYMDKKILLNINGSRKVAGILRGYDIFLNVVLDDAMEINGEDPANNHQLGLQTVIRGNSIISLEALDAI

B1: D1/D2 (SmD1/SmD2 subcomplex, HT-tag removed) (complex, S. cerevisiae)
chain 1: T3 sequence (looked up) 1
chain 2: T3 sequence (looked up) 2
B2: D3/B (SmD3/SmB subcomplex, HT-tag removed) (complex, S. cerevisiae)
chain 1: MSKIQVAHSSRLANLIDYKLRVLTQDGRVYIGQLMAFDKHMNLVLNECIEERVPKTQLDKLRPRKDSKDGTTLNIKVEKRVLGLTILRGEQILSTVVEDKPLLSK
chain 2: MTMNGIPVKLLNEAQGHIVSLELTTGATYRGKLVESEDSMNVQLRDVIATEPQGAVTHMDQIFVRGSQIKFIVVPDLLKNAPLFKKNS
B3: Brr1, full length, HT-tag removed (natural protein, S. cerevisiae, UniProt Q99177 1-341, looked up)
chain: MKRGESQAPDAIFGQSRAFALSDSSVNPDVIEYLKSVRQEALRTNAISIKNHMNLQKRTRHKSSMYDDEDEGALKRHAISPSLIRLQRNVEIWVRWFNSVKATVLTNAYEFTGYEDETLDLLLLFLKNYLEDMPSKCTTVEKIISVLNQHSFPEKAEEKEENLQIDEEWAKNILVRLEKTKIDSVEDVKKVITEGDKHELVGYNQWFQYLINNEPQHTTFHEKITSKQLWVLIKYMSNTWIKEIHKKGRHYRRLQDWLFYILVHTPERVTAEYTSILRDLGKKCLELIQKKPVEAHENKITLPKEMAELNVEIPAAVENMTITELTVSVIAVNYGQKDLIE
B4: HT-Brr1, full-length Brr1 with N-terminal HT-tag (natural protein, S. cerevisiae, UniProt Q99177 1-341, looked up)
chain: B3 chain
B5: Lot5ΔC, Lot5 (residues 1–227), as used in GFC (domain or fragment, S. cerevisiae, UniProt P34234 1-227, looked up)
chain: T1 sequence (looked up)

Assay [1] concerns the target B5. Description: SEC. On the technique in general: SEC sorts molecules by how far they enter the pores of the column.
Assay [2] addresses T1, HT-Lot5ΔC, Lot5 (residues 1–227) with …. Description: pull-down.
For assay [3], the target named is T2, full-length Lot5 with N-terminal HT-tag. Description: pull-down.
The target of assay [4] is T3, D1/D2/F/E/G pentamer (5Sm). Description: SEC.
Assay [5] has as its target T3, D1/D2/F/E/G pentamer (5Sm). Description: pull-down.

For B1, the binding result in assay [1], in assay [2] and in assay [3] was “binds” each time. As to B2, the binding result in assay [1], in assay [2] and in assay [3] was “binds” throughout.

In the case of B3, the binding result in assay [4] is recorded as “binds”. On to B4, for which the binding result in assay [5] was “binds”.

Regarding B5, in assay [4], the binding result is “binds”.
